In PMC10791543 (Science signaling, 2023):

Assays:
Assay in all cases: other fluorescence titration
[1] = target: recombinant RHOA^L57V (human) (UniProt P61586)
[2] = target: recombinant RHOA^WT (human) (UniProt P61586)
[3] = target: recombinant RHOA^WT (human, UniProt P61586 1-193)
[4] = target: recombinant RHOA^L57V (human, UniProt P61586 1-193, L57V)
Sequence of recombinant RHOA^L57V (P61586 whole entry L57V): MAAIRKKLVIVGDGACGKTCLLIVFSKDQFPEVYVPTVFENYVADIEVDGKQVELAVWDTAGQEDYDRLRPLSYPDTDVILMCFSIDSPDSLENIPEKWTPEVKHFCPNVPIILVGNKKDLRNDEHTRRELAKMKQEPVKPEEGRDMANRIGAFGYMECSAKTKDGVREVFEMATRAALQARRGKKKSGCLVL

Sequence of GST-ROCK1-RBD (domain or fragment) (Q13464 947-1015 limits assumed): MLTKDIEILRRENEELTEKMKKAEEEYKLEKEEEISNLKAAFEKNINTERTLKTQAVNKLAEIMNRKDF
Sequence of recombinant RHOA^L57V (human) (P61586 whole entry L57V): as the sequence (P61586 whole entry L57V) above
Sequence of recombinant RHOA^WT (P61586 whole entry): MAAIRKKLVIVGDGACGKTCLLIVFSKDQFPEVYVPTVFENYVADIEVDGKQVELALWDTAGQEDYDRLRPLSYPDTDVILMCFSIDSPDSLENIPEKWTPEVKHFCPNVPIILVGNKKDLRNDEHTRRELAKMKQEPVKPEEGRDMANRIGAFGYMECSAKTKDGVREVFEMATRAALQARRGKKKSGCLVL
Sequence of recombinant RHOA^WT (human) (P61586 whole entry): as above

Kd [1] [nM]	Kd [2] [nM]	Kd [3] [nM]	Kd [4] [nM]	Molecule
243	439			GST-ROCK1-RBD (domain or fragment)
		258 ± 15	220 ± 10	GST-Rhotekin-RBD (domain or fragment, mouse, UniProt Q8C6B2-2 7-89, looked up) ILEDLNMLYIRQMALSLEDTELQRKLDHEIRMRDGACKLLAACSQREQALEATKSLLVCNSRILSYMGELQRRKEAQVLEKTG
